Article PMC9873690, “Structural insights into the elevator-type transport mechanism of a bacterial ZIP metal transporter” (Nature Communications, 2023)

Target: the molecule itself
Experiment: cross-linking; disulfide cross-linking of variants purified in DDM with 50 µM Cu(II)-(1,10-phenanthroline)3 at 25 °C; non-reducing SDS-PAGE and Western blot with anti-Histag antibody

B1: BbZIP L138C/M295C variant (natural protein)
chain: MNQPSSLAADLRGAWHAQAQSHPLITLGLAASAAGVVLLLVAGIVNALTGENRVHVGYAVLGGAAGFAATALGALMALGLRAISARTQDAMLGFAAGMMLAASAFSLILPGLDAAGTIVGPGPAAAAVVALGLGLGVCLMLGLDYFTPHEHERTGHQGPEAARVNRVWLFVLTIILHNLPEGMAIGVSFATGDLRIGLPLTSAIAIQDVPEGLAVALALRAVGLPIGRAVLVAVASGLMEPLGALVGVGISSGFALAYPISMGLAAGAMIFVVSHEVIPETHRNGHETTATVGLCAGFALMMFLDTALG
notes: Purified protein was detected with the anti-Histag antibody; in the membrane fraction it was detected with a custom monoclonal antibody against BbZIP; source: E. coli C41 (DE3) pLysS, purified in DDM (1 mM TCEP except in the last size-exclusion step); also in the spheroplast-derived membrane fraction of E. coli cells; not shown: His-tag, N-terminal, kept
- stoichiometry N: 2
